Assay results published in the DeepSol protein solubility set.

Assay: soluble on expression in E. coli; label from the status in PepcDB or PDB records

Sequence	soluble on expression in E. coli
MTDSKYFTTNKKGEIFELKAELNNEKKEKRKEAVKKVIAAMTVGKDVSSLFPDVVNCMQTDNLELKKLVYLYLMNYAKSQPDMAIMAVNSFVKDCEDPNPLIRALAVRTMGCIRVDKITEYLCEPLRKCLKDEDPYVRKTAAVCVAKLHDINAQMVEDQGFLDSLRDLIADSNPMVVANAVAALSEISESHPNSNLLDLNPQNINKLLTALNECTEWGQIFILDCLSNYNPKDDREAQSICERVTPRLSHANSAVVLSAVKVLMKFLELLPKDSDYYNMLLKKLAPPLVTLLSGEPEVQYVALRNINLIVQKRPEILKQEIKVFFVKYNDPIYVKLEKLDIMIRLASQANIAQVLAELKEYATEVDVDFVRKAVRAIGRCAIKVEQSAERCVSTLLDLIQTKVNYVVQEAIVVIRDIFRKYPNKYESIIATLCENLDSLDEPDARAAMIWIVGEYAERIDNADELLESFLEGFHDESTQVQLTLLTAIVKLFLKKPSETQELVQQVLSLATQDSDNPDLRDRGYIYWRLLSTDPVTAKEVVLSEKPLISEETDLIEPTLLDELICHIGSLASVYHKPPNAFVEGSHGIHRK	soluble
MTDSPGGVAPASPVEDASDASLGQPEEGAPCQVVLQGAELNGILQAFAPLRTSLLDSLLVMGDRGILIHNTIFGEQVFLPLEHSQFSRYRWRGPTAAFLSLVDQKRSLLSVFRANQYPDLRRVELAITGQAPFRTLVQRIWTTTSDGEAVELASETLMKRELTSFVVLVPQGTPDVQLRLTRPQLTKVLNATGADSATPTTFELGVNGKFSVFTTSTCVTFAAREEGVSSSTSTQVQILSNALTKAGQAAANAKTVYGENTHRTFSVVVDDCSMRAVLRRLQVGGGTLKFFLTTPVPSLCVTATGPNAVSAVFLLKPQK	soluble
MTDTAENQTQNNWQAGHPRSIRSFVLRQSHMTAAQQRAIDTLWDSFGIDYQATPADLDARFGSSRPKILEIGFGMGTATAEIARRLPETDFLAIDVHGPGVGNLLKLIDENHLENIRVMRHDAVEVVENMLQDGSLDGIHIFFPDPWHKKRHHKRRLIQAPFIAKLLPKLKTGGYIHLATDWEEYAQQMLEVLSSFDSLQNTAADYAPTPDYRPETKFEARGKRLGHGVWDLVFKRIG	not soluble
MTDTDTQADRFEQMMWQAVDKLFEQHDGKLESMDGREQELVLIWRTEADIGNGSILQFVCNWGFPAAEKTCSVLKKIGAVHSAMLIHRAADALDKEIRRLQSEGKNLKEMWDITSRQQNRLTAEQSG	not soluble
MTDTLLPAAPQPLEKEGDDYFRKGCNPLAQTGRSKLQNQRAALNQQILKAVRMRTGAENLLKVATNQKVREQVRLELSFVNSDLQMLKEELEGLNISVGVYQGTEEAFTIPLIPLGLKETKEVDFSIVFKDFILEHYSEDSYLYEDDIADLMDLRQACRTPSRDEAGVELLMSYFIQLGFVESRFFPPTRHMGLLFTWYDSFTGVPVSQQTLLLEKASVLFNIGALYTQIGTRCNRQTQAGLESAVDAFQRAAGVLNYLKETFTHTPSYDMSPAMLSVLVKMMLAQAQESVFEKVCLPGIQNEFFVLVKVAQEAAKVAEAYRQLHAAMSQEPVKENIPYSWASVAYVKAYHYGALAHYFAATLLIDHQLKPGADEDHQEKCLSQLYDRMPEGMTPLATLKNAGQRVLLGKGHLHRAIGFHEESLREANLCKKLRDIQVLRDVLSAAHQRTQLKHTQHREDDDLLNLIDAPDVLPKTEREVKITFPDFSKVTVTDFFQKLGPLSVFSASKRWSPPRGIHFTVEEGDLGFTLRGNTPVQVHFLDPHCSASLAGAKEGDYIVSIQGVDCKWLTVSEVMKLLKSFGGEEVEMKVVSLLDSTSSMHNKCATYSVGMQKTYSMICLSMDDDDKADKTKKISKKLSFLSWGTSKNRQKSASTLCLPEVGLARSQNKKKLPTPFSLLNSDSSLY	soluble
MTEETKPIKIAVIRCDIVSEACPGVGCFKAFNERKSYFKEYDEKAQMIAFFTCGGCSGRRVYRLLKALKKHNPDVVHLSSCMLMEDSYPRCPNIDTIRKTIQDAGIKVVEGTHH	not soluble
MTEITGGTLVLVGADHPVAHLDVTAFEASVTHDVMAASVAGTGLGVSTATAAGLSHLVVDAGVAQPVQGARSVRIRGERGDLRHADAMTPVQVEALLRDGQALGAEASHDGLVCLGEVGVGNTTIATALACAMTGLGPDEAVGLGAGSDTAMVERKAEIIKAALTRTHTDPNDPERLLAALGGPEFAVLAGVCLGAAEAGSPVVLDGLATSVAALIATKFSPGLHGWLVASQASREQVHHIVLAELGLEALMELRMRAGEGVGACFGAQMILTGLQVRRTAARTCLEHHHHHH	not soluble
MTEITHRTKTRPVKVGNLTIGGNNEVVVQSMTTTKTHDVEATVAEIKRLEEAGCQVVRVACPDMRAAEAIPAIKKQISIPLVVDIHFDYKLALKAIEGGADKIRINPGNIGKRHKVEAVVKAAKEKGIPIRIGVNAGSLEKRILDKYGYPTADGMVESALHHIKILEDLDFHDIIVSMKASDVNLAIEAYEKAAKAFDYPLHLGITESGTLFAGTVKSAAGLGAILNMGIGNTVRVSLSADPVEEVKVARELLKSFGLASNAATLISCPTCGRIEIDLISIANEMEEYISKIRAPIKVAVLGCAVNGPGEAREADIGIAGARGEGLLFRKGEIVRKVPEETMVEELKKEIDKIAEEYFAKQKELEKALEHHHHHH	soluble
MTEKKERIDVHAYLAEFDDIPGTRVFTAQRARKGYNLNQFAMSLMKAENRERFKADESAYLDEWNLTPAAKAAVLARDYNAMIDEGGNVYFLSKLFSTDGKSFQFAAGSMTGMTQEEYAQMMIDGGRSPAGVRSIKGGY	soluble
MTENFFGKTLAARPVEAIPGMLEFDIPVHGDNRGWFKENFQKEKMLPLGFPESFFAEGKLQNNVSFSRKNVLRGLHAEPWDKYISVADGGKVLGTWVDLREGETFGNTYQTVIDASKSIFVPRGVANGFQVLSDFVAYSYLVNDYWALELKPKYAFVNYADPSLDIKWENLEEAEVSEADENHPFLKDVKPLRKEDL	soluble
MTEPIKEIAAKRSVEAVYTGGTVRWSANGQKLFSTCTNVVKVIDLADNTASYTIGDPEDELRITCTAVDKNRNRLLVAYNNQIIREYSIPLDPSTTKPELARTWKTIHTAPILVMEFNEEGHLLATGSADHIVKVWNLTEQQCTHTLKGPSVVSAILFGKHEKLVVGYIEGQLNLYNIMRGAPKKLVNTWKSHNSHITALLQVPDSRVVVALSRDQTMSIHETETQETLRVLPLYESIEGGAIGHNGNLFTVGEEGVVKEFVIETAKLVRKKRIASSNLDHLAYDVVSNRFLAISAEQNLIILDFENLKIARQIVGFHDEIYSCCLLGKDESHMAVASNTSEIRLYNTKTLDCQLIRGHTESVLSVVSPTWDTSLLASCSKDNSIIFWRLVTSPENDSCSTLVPVAAATGHANTVTALAISNTGRAPFLASVSTDCTIKLWGLGVSTKLKEVKIDAEKDFVEQLPKLTCSSTMVAHGKDVNCVDISESDALIATGGMDKLVKLWQVDTHKMQLGIAGTLSGHRRGVGDVKFAKNSHKLASCSGDMTIKIWNISEKSCLQTISGHSCAVFRVIFARNDSQLISADSAGIIKIWTIKTADCECSIDAHTDKIWSLSKNHNESEFVTAGTDGRIVVWKDVTEEKQKAEDNKRREAIEQDQTLTNLLSQKRYSEALVFALTLAKPFCAFKVINALMAEETPEELGSAIRRLDTRQIEILLQFTVKWNTNSRTSSVAQRVLYEIVHIVDPEELVSMPGAYGYIESFLPYTQRHMDRLDRAKQDVSLFDFVWRQMRSSV	not soluble
MTEQERLELEAAAFRRLVAHLDSRKDVQNIDLMNLSGFCRNCLSKWYKAAADEKHIDITLDDAREVVYGMPYSEWKANYQKEASAEQQAAFVKESKHD	soluble
MTERKPEVIITYCTQCQWLLRAAWLAQELLSTFSDDLGKVSLEPATGGAFRITCDGVQIWERKADGGFPEAKVLKQRVRDQIDPERDLGHNDRTQLEHHHHHH	soluble
MTESDVDSGSKKYLSNHKGIFIHVTLEELKRYHQLTPEQKRLIRAIVKTLIHNPQLLDESSYLYRLLASKAISQFVCPLCLMPFSSSVSLKQHIRYTEHTKVCPVCKKEFTSTDSALDHVCKKHNICVS	soluble
MTESEIHERFVDTYMHILKYVGDFVSVPTRPYKITFEAYTVMRMIATSEEPLTLVKIAKEQRVSRSAIARQINVLLDLKYIEQTTNTHDRRIKYLSLTPAGHKVEQEITTASEERFHQWVQVYGEKRASDTLRYINDAEQKATELGFSGFSGLHDKRGRHTEYSDPKTKN	not soluble
MTESFAQLFEEFLNETQFQQGTIVKGTVVAIENGYVLVDAGLKSESAIPAEQFKNAAGELEVQVGSQVDVALDAVEDGFGETQLSREKAKRHEAWIVLEKAYEEAATVIGIINGKVKGGFTVELNGIRAFLPGSLVDVRPIRDTAHLENKELEFKVIKLDQKRNNVVVSRRAVIESESSVERDELLETLQEGTEVKGIVKNLTDYGAFVDLGGVDGLLHITDMAWKRVKHPSEIVNVGDEILVKVLKFDRDRTRVSLGLKQLGEDPWVAIAKRYPEGHKLSGRVTNLTDYGCFVEIEEGVEGLVHVSEMDWTNKNIHPSKVVNVGDEVEVMVLDIDEERRRISLGLKQCKANPWQSFAEAQAKGDKVTGKIKSITDFGIFIGLEGGIDGLVHLSDISWNVPGEEAVREFKKGDEISAVVLAVDAERERISLGIKQMENDPFNAYVSDNKKGALVNGTVTAVDAKGATIELEDGVEGYIRASEVSRDRIEDASLILNVGDKVEAKFTGVDRKNRVINLSIKAKDEAEEQEVMATLNKQDEAAFGNAMADAFKAAKGELEHHHHHH	not soluble
MTEVKAMTKFYDVTFQELSGRSVVKTEVASDREPFDVWQDACASYSETELNIQINEDTFVTLNRHFVVRIDVKEVDGPVDKQVRRRDELMNVVNTLSNMGL	soluble
MTEYERPQTPGVVTHDAVVLAGGAARRLGGADKPGVRVGGRALLDRVLAACAGAATTVVVADPRATARPVVWAREEPPGAGPVAALDAGLRRTTAAYVVVLSADLPFLDEETVRRLLSTLQASGTEGVLLTDPGGRDQPLVAAYRSAALRRELAELAAGHGTLAGLPLRVLVAALDLTRVSDPVASFDCDTWDDIAAARSRIREHGNVLDEWISAVKDELGIDLAVDTGILLDLARDAAHGVARPAAPLTTFLVGYAAAQAGGGPEAVAEAARKAAALALRWADEAAAEAGPDAGLEHHHHHH	not soluble
MTEYIQDAIPAKLAIAIANPIFPQLDSQLRAGRHISIEMLDEHAFLMDFQTELESFYRRYHVDLIRAPEGFFYLRPKASTLIARSAMSEMEMLVGKVLCYLYLSPERLAQQGIFSQDDVYEELLNLADENKLLKAVNPRSTGSDLDRAKLAEKVGGALRRLARIGIITRVGEQNSKKFIISEAVFRFGADVRAGDDPREVQLRLIRDGEATTPTLLTTEAIEFAEDGARDELEESEAELEHHHHHH	soluble
MTEYNNNFDRELGWDDEITQDSVGFVQLVPGDYQFTVTNMERARHTPNPKSPGKLPACNKAVVTIQIETSEGIAQLTHNLFLHTTTEGMLSAFFGAIGQKKHGEPLKMNWNTVIGAKGVARINKRKGTGDYADREYDNIKSMIYADEVDWTKVLNKDVAQPQQMTHQQSAQPTYQGQQAQGTNFAQQPATQSYQQGQMQTPQQPQGGWGGF	not soluble
MTFSCEPAELRSRAKAAFIGLAVGDALGAPVEFMTTGEIKAKHGVLREIVGGGWLRLKPGQVTDDTDMSLCVARGVAKAGEWNLTAIAEEFAAWLRSKPVDVGDTCRRGIRNYMLKGLLETPFNQWDAGNGAAMRMLPTALFTMGDDNLLCRCAVEQGHLTHNHPLSDAACITLGRLVHLSVLGFSKPRLRREADRLTESHPTFSFEPYRGLATGYVVDTMQTVLHFFFRGRDFEECLVSTVNQGGDADTTGAIIGMVAGAYYGMEEIPRRWLKKMDRQVLDEIDTLSDLLISLSPALRSGNGILLPPA	not soluble
MTGERIEKVKINDEFAKSHFLTTQWRETKRQRHYKMPVTEQGLRERIESAIPQVYHIIVTDLSYGCGQSFDIVVVSDFFQGKSKLMRSRAVNKAVKEELQEIHAFSCKCYTEEEWSKIVV	soluble
